The RNAGym collection of RNA variant scans (doi:10.1021/acssynbio.7b00057)

B1: Pistol ribozyme (parent)
chain: GGGUCGUUGUUCCAUAAUCGCGUGGAUAUGGCACGCAAGUUUCUACCGGGCACCGUAAAUGUCCGACUGGAGCCGUUCGGGCGGCUAUAAACAGACCUCAGGCCCGAAGCGUGGCGGCACCUGCCGCCGGUGGUAAAAAAGAUCGGAAGAGCACACGUCU

Variants of: B1
Assay: aptazyme ON/OFF ratio, guanine; higher = stronger switching; co-transcriptional cleavage with and without guanine

Variant | aptazyme ON/OFF ratio
U8C G9A U10G U11A C12G C13G | 1.35
U8C G9A U10G U11A C12G C13A | 1.19
U8C G9A U10G U11A C12G C13U | 1.22
U8C G9C U10A U11A C12G C13A | 1.1
U8C G9C U10A U11A C12G C13G | 1.18
U8C G9C U10A U11A C12G C13U | 1.12
U8C G9A U11A C12G C13G | 1.2
U8C G9A U11A C12G C13U | 1.23
U8C G9A U11A C12G C13A | 1.14
U8C G9C U10G C12U C13A | 1.12
U8C G9C U10G C12U C13U | 1.28
U8C G9C U10G C12U C13G | 1.06
U8C G9C U10G U11C C13G | 1.22
U8C G9C U10G U11C C13A | 1.3
U8C G9C U10G U11C C13U | 1.2
U8C G9C U10C U11C C12U C13G | 1
U8C G9C U10C U11C C12U C13A | 1.05
U8C G9C U10C U11C C12U C13U | 1.01
U8C G9C U11C C12G C13A | 1.2
U8C G9C U11C C12G C13G | 1.26
U8C G9C U11C C12G C13U | 1.15

Variant | aptazyme ON/OFF ratio
U8C G9C U11C C12A C13G | 1.07
U8C G9C U11C C12A C13U | 1.06
U8C G9C U11C C12A C13A | 1.03
U8C G9C U10G C12G C13A | 1.08
U8C G9C U10G C12G C13G | 1.09
U8C G9C U10G C12G C13U | 1.09
U8C G9A U10G U11G C12A | 1.12
U8C G9A U10G U11G C12U | 1.24
U8C G9A U10G U11G C12G | 1.21
U8C G9A U11G C13G | 1.27
U8C G9A U11G C13A | 1.23
U8C G9A U11G C13U | 1.15
U8C G9C | 1.12
U8C G9C U11C C12U | 1.08
U8C G9C U11C C12G | 1.26
U8C G9C U11C C12A | 1.08
U8C G9C U10C U11G C12U C13G | 1.1
U8C G9C U10C U11G C12U C13A | 1.05
U8C G9C U10C U11G C12U C13U | 1.06
U8C G9A U10G U11A C12U C13U | 1.17
U8C G9A U10G U11A C12U C13G | 1.16

Variant | aptazyme ON/OFF ratio
U8C G9A U10G U11A C12U C13A | 1.1
U8C G9C U10A U11G C12A C13G | 1.09
U8C G9C U10A U11G C12A C13A | 1.16
U8C G9C U10A U11G C12A C13U | 1.07
U8C G9A U10G U11C C12G C13A | 1.18
U8C G9A U10G U11C C12G C13U | 1.2
U8C G9A U10G U11C C12G C13G | 1.28
U8C G9C U10C C12U C13U | 1.06
U8C G9C U10C C12U C13G | 1.07
U8C G9C U10C C12U C13A | 1.02
U8C G9C U10C C12G C13A | 1.07
U8C G9C U10C C12G C13G | 1.12
U8C G9C U10C C12G C13U | 1.08
U8C G9C U11A C12G | 1.18
U8C G9C U11A C12A | 1.22
U8C G9C U11A C12U | 1.08
U8C G9C U10C U11G C12G C13A | 1.13
U8C G9C U10C U11G C12G C13G | 1.09
U8C G9C U10C U11G C12G C13U | 1.08
U8C G9A U10G U11G C12U C13U | 1.22
U8C G9A U10G U11G C12U C13A | 1.09

Variant | aptazyme ON/OFF ratio
U8C G9A U10G U11G C12U C13G | 1.1
U8C G9C U10A U11C C12A | 1.24
U8C G9C U10A U11C C12U | 1.21
U8C G9C U10A U11C C12G | 1.2
U8C G9C C12G C13U | 1.13
U8C G9C C12G C13G | 1.14
U8C G9C C12G C13A | 1.14
U8C G9C U11C C13G | 1.04
U8C G9C U11C C13A | 1.11
U8C G9C U11C C13U | 1.04
U8C G9A U10G U11C | 1.05
U8C G9A U10G U11G | 1.06
U8C G9A U11G C12U C13A | 1.34
U8C G9A U11G C12U C13G | 1.29
U8C G9A U11G C12U C13U | 1.22
U8C G9C U10A U11A C12U C13G | 1.1
U8C G9C U10A U11A C12U C13A | 1.09
U8C G9C U10A U11A C12U C13U | 1.08
U8C G9C U10C C12U | 1.07
U8C G9C U10C C12G | 1.06
